The supplement of paper PMC9112550, “Optimization of the antimicrobial peptide Bac7 by deep mutational scanning” (BMC Biology, 2022)

Each sequence was assayed on Escherichia coli TOP10 (assay: shrunken log2 fold change of peptide-encoding DNA abundance (4.5 h post-induction vs induction); higher = less antimicrobial activity (less host growth inhibition)). Conditions: time post-induction: 4.5 h; library: site-saturation at positions 5, 18, 19, 20.
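Also: peptides expressed intracellularly from a pBAD plasmid library in pooled LB shake-flask culture, induced with 0.3% L-arabinose, DNA abundance read by NGS, three biological replicates, DESeq2 with apeglm shrinkage.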

RRIRSRPPRLPRPRPRPIKRPRP and RRIRYRPPRLPRPRPRPGDGPRP are within 0.2 log units of each other in “shrunken log2 fold change” value: 0.0449 for the first, 0.0695 for the second.

Compared with RRIRTRPPRLPRPRPRPADKPRP, RRIRQRPPRLPRPRPRPGCLPRP is higher in “shrunken log2 fold change” value: -0.257 for the first, 0.129 for the second.

Compared with RRIRSRPPRLPRPRPRPGTHPRP, RRIRERPPRLPRPRPRPHMYPRP is lower in “shrunken log2 fold change” value: -0.146 for the first, -0.577 for the second.

Going from RRIRNRPPRLPRPRPRPRSDPRP to RRIRSRPPRLPRPRPRPHHRPRP, the “shrunken log2 fold change” value falls from 0.0587 to -0.43.

RRIRSRPPRLPRPRPRPITVPRP and RRIRPRPPRLPRPRPRPYQDPRP are within 0.2 log units of each other in “shrunken log2 fold change” value: -0.132 for the first, -0.025 for the second.

RRIRYRPPRLPRPRPRPMQGPRP and RRIRWRPPRLPRPRPRPMFMPRP are within 0.2 log units of each other in “shrunken log2 fold change” value: -0.0463 for the first, -0.209 for the second.

Going from RRIRWRPPRLPRPRPRPKFAPRP to RRIRDRPPRLPRPRPRPKDEPRP, the “shrunken log2 fold change” value falls from 0.453 to 0.0229.

RRIRARPPRLPRPRPRPLIHPRP and RRIRYRPPRLPRPRPRPVNCPRP are within 0.2 log units of each other in “shrunken log2 fold change” value: -0.117 for the first, 0.0039 for the second.

Compared with RRIRHRPPRLPRPRPRPCFGPRP, RRIRQRPPRLPRPRPRPKHAPRP is higher in “shrunken log2 fold change” value: 0.104 for the first, 0.401 for the second.

First: RRIRIRPPRLPRPRPRPAMTPRP
Second: RRIRPRPPRLPRPRPRPNRAPRP
The “shrunken log2 fold change” value of the first is lower: -0.366 for the first, 0.371 for the second.

RRIRFRPPRLPRPRPRPIGCPRP and RRIRMRPPRLPRPRPRPGYNPRP are within 0.2 log units of each other in “shrunken log2 fold change” value: -0.111 for the first, -0.282 for the second.

Going from RRIRHRPPRLPRPRPRPFKHPRP to RRIRWRPPRLPRPRPRPETKPRP, the “shrunken log2 fold change” value rises from -0.454 to 0.285.

First: RRIRHRPPRLPRPRPRPENIPRP
Second: RRIRWRPPRLPRPRPRPGGAPRP
The “shrunken log2 fold change” value of the first is lower: -0.0173 for the first, 0.691 for the second.

Going from RRIRRRPPRLPRPRPRPTAFPRP to RRIRDRPPRLPRPRPRPLRMPRP, the “shrunken log2 fold change” value falls from 1.31 to 0.409.

RRIRPRPPRLPRPRPRPLRSPRP and RRIRNRPPRLPRPRPRPFDQPRP are within 0.2 log units of each other in “shrunken log2 fold change” value: 0.167 for the first, -0.0155 for the second.

Compared with RRIRTRPPRLPRPRPRPTGRPRP, RRIRMRPPRLPRPRPRPSCRPRP is higher in “shrunken log2 fold change” value: 0.099 for the first, 0.46 for the second.

First: RRIRIRPPRLPRPRPRPLECPRP
Second: RRIRRRPPRLPRPRPRPHVWPRP
The “shrunken log2 fold change” value of the first is lower: 0.0303 for the first, 0.242 for the second.

RRIRGRPPRLPRPRPRPCWQPRP and RRIRIRPPRLPRPRPRPIEAPRP are within 0.2 log units of each other in “shrunken log2 fold change” value: 0.153 for the first, -0.01 for the second.

RRIRIRPPRLPRPRPRPEYQPRP and RRIRHRPPRLPRPRPRPTCPPRP are within 0.2 log units of each other in “shrunken log2 fold change” value: 0.00783 for the first, 0.0464 for the second.

Going from RRIRIRPPRLPRPRPRPQREPRP to RRIRQRPPRLPRPRPRPPWAPRP, the “shrunken log2 fold change” value rises from 0.0374 to 0.577.

RRIRPRPPRLPRPRPRPEYHPRP and RRIRNRPPRLPRPRPRPGCCPRP are within 0.2 log units of each other in “shrunken log2 fold change” value: -0.0649 for the first, -0.0641 for the second.

Compared with RRIRLRPPRLPRPRPRPWQGPRP, RRIRKRPPRLPRPRPRPRQGPRP is higher in “shrunken log2 fold change” value: -0.00192 for the first, 0.708 for the second.

RRIRLRPPRLPRPRPRPSRCPRP and RRIRKRPPRLPRPRPRPVNAPRP are within 0.2 log units of each other in “shrunken log2 fold change” value: 0.05 for the first, 0.025 for the second.

RRIRTRPPRLPRPRPRPFNTPRP and RRIRQRPPRLPRPRPRPACIPRP are within 0.2 log units of each other in “shrunken log2 fold change” value: -0.0686 for the first, -0.165 for the second.

First: RRIRERPPRLPRPRPRPWIMPRP
Second: RRIRYRPPRLPRPRPRPIYHPRP
The “shrunken log2 fold change” value of the first is higher: -0.277 for the first, -0.85 for the second.

RRIRLRPPRLPRPRPRPMKQPRP and RRIRFRPPRLPRPRPRPSGYPRP are within 0.2 log units of each other in “shrunken log2 fold change” value: 0.132 for the first, 0.00547 for the second.

First: RRIRNRPPRLPRPRPRPFYQPRP
Second: RRIRWRPPRLPRPRPRPVLLPRP
The “shrunken log2 fold change” value of the first is lower: -0.8 for the first, 0.0146 for the second.

Going from RRIRCRPPRLPRPRPRPCRDPRP to RRIRCRPPRLPRPRPRPLKYPRP, the “shrunken log2 fold change” value falls from -0.142 to -0.566.

RRIRPRPPRLPRPRPRPQQYPRP and RRIRVRPPRLPRPRPRPWYQPRP are within 0.2 log units of each other in “shrunken log2 fold change” value: -0.108 for the first, -0.197 for the second.

Going from RRIRTRPPRLPRPRPRPILWPRP to RRIRWRPPRLPRPRPRPMYFPRP, the “shrunken log2 fold change” value falls from 0.0348 to -0.555.

Going from RRIRPRPPRLPRPRPRPSFFPRP to RRIRFRPPRLPRPRPRPQCKPRP, the “shrunken log2 fold change” value falls from 0.19 to -0.422.

Compared with RRIRIRPPRLPRPRPRPGSAPRP, RRIRCRPPRLPRPRPRPYNTPRP is lower in “shrunken log2 fold change” value: 0.267 for the first, -0.91 for the second.

First: RRIRGRPPRLPRPRPRPIFHPRP
Second: RRIRFRPPRLPRPRPRPYDFPRP
The “shrunken log2 fold change” value of the first is higher: 0.249 for the first, -0.0848 for the second.

RRIRGRPPRLPRPRPRPWIIPRP and RRIRIRPPRLPRPRPRPWICPRP are within 0.2 log units of each other in “shrunken log2 fold change” value: -0.121 for the first, -0.132 for the second.

Going from RRIRERPPRLPRPRPRPTWIPRP to RRIRWRPPRLPRPRPRPNDWPRP, the “shrunken log2 fold change” value rises from -0.268 to 0.00443.

First: RRIRQRPPRLPRPRPRPMMYPRP
Second: RRIRTRPPRLPRPRPRPPWYPRP
The “shrunken log2 fold change” value of the first is higher: 0.0473 for the first, -0.166 for the second.

First: RRIRSRPPRLPRPRPRPWCNPRP
Second: RRIRKRPPRLPRPRPRPINHPRP
The “shrunken log2 fold change” value of the first is higher: -0.116 for the first, -0.408 for the second.

RRIRSRPPRLPRPRPRPQKDPRP and RRIRKRPPRLPRPRPRPDFTPRP are within 0.2 log units of each other in “shrunken log2 fold change” value: -0.323 for the first, -0.206 for the second.

Going from RRIRYRPPRLPRPRPRPNAFPRP to RRIRIRPPRLPRPRPRPWITPRP, the “shrunken log2 fold change” value falls from -0.158 to -0.917.

RRIRCRPPRLPRPRPRPGFPPRP and RRIRNRPPRLPRPRPRPTVFPRP are within 0.2 log units of each other in “shrunken log2 fold change” value: 0.134 for the first, 0.0462 for the second.

RRIRQRPPRLPRPRPRPTLHPRP and RRIRCRPPRLPRPRPRPPKFPRP are within 0.2 log units of each other in “shrunken log2 fold change” value: 0.0326 for the first, -0.0746 for the second.

Compared with RRIRERPPRLPRPRPRPVCDPRP, RRIRIRPPRLPRPRPRPMNHPRP is lower in “shrunken log2 fold change” value: 0.078 for the first, -0.348 for the second.

Compared with RRIRMRPPRLPRPRPRPGRSPRP, RRIRNRPPRLPRPRPRPICFPRP is lower in “shrunken log2 fold change” value: 0.303 for the first, -0.217 for the second.

Going from RRIRVRPPRLPRPRPRPRFDPRP to RRIRTRPPRLPRPRPRPKPKPRP, the “shrunken log2 fold change” value rises from 0.048 to 0.349.

First: RRIRRRPPRLPRPRPRPTPIPRP
Second: RRIRSRPPRLPRPRPRPPMFPRP
The “shrunken log2 fold change” value of the first is higher: 1.03 for the first, 0.0179 for the second.

Compared with RRIRARPPRLPRPRPRPNKRPRP, RRIRWRPPRLPRPRPRPLLWPRP is higher in “shrunken log2 fold change” value: 0.214 for the first, 0.571 for the second.

RRIRPRPPRLPRPRPRPSLKPRP and RRIRQRPPRLPRPRPRPGEIPRP are within 0.2 log units of each other in “shrunken log2 fold change” value: -0.25 for the first, -0.366 for the second.

First: RRIRVRPPRLPRPRPRPHENPRP
Second: RRIRLRPPRLPRPRPRPQRRPRP
The “shrunken log2 fold change” value of the first is lower: -0.38 for the first, 0.0742 for the second.

Compared with RRIRMRPPRLPRPRPRPGQHPRP, RRIRDRPPRLPRPRPRPLNDPRP is lower in “shrunken log2 fold change” value: 0.406 for the first, -0.172 for the second.

RRIRFRPPRLPRPRPRPEHGPRP and RRIRPRPPRLPRPRPRPGHFPRP are within 0.2 log units of each other in “shrunken log2 fold change” value: 0.00151 for the first, 0.0437 for the second.

First: RRIRSRPPRLPRPRPRPYKRPRP
Second: RRIRGRPPRLPRPRPRPFAFPRP
The “shrunken log2 fold change” value of the first is lower: -0.618 for the first, 0.531 for the second.

RRIRLRPPRLPRPRPRPLVCPRP and RRIRMRPPRLPRPRPRPYWWPRP are within 0.2 log units of each other in “shrunken log2 fold change” value: -0.0954 for the first, 0.0238 for the second.

RRIRFRPPRLPRPRPRPTSVPRP and RRIRSRPPRLPRPRPRPTKQPRP are within 0.2 log units of each other in “shrunken log2 fold change” value: -0.0668 for the first, 0.129 for the second.

First: RRIRCRPPRLPRPRPRPIHCPRP
Second: RRIRVRPPRLPRPRPRPSDTPRP
The “shrunken log2 fold change” value of the first is higher: -0.0192 for the first, -0.54 for the second.

First: RRIRTRPPRLPRPRPRPIPGPRP
Second: RRIRARPPRLPRPRPRPVNRPRP
The “shrunken log2 fold change” value of the first is lower: -0.36 for the first, 0.277 for the second.

RRIRDRPPRLPRPRPRPEKWPRP and RRIRHRPPRLPRPRPRPARRPRP are within 0.2 log units of each other in “shrunken log2 fold change” value: -0.00325 for the first, 0.143 for the second.

First: RRIRVRPPRLPRPRPRPNFCPRP
Second: RRIRIRPPRLPRPRPRPCDRPRP
The “shrunken log2 fold change” value of the first is higher: -0.139 for the first, -0.563 for the second.

Going from RRIRYRPPRLPRPRPRPMWIPRP to RRIRMRPPRLPRPRPRPQYEPRP, the “shrunken log2 fold change” value rises from -0.526 to -0.148.

First: RRIRLRPPRLPRPRPRPAKLPRP
Second: RRIRDRPPRLPRPRPRPGTGPRP
The “shrunken log2 fold change” value of the first is lower: -0.0675 for the first, 0.304 for the second.

First: RRIRARPPRLPRPRPRPSLQPRP
Second: RRIRSRPPRLPRPRPRPFMMPRP
The “shrunken log2 fold change” value of the first is higher: 0.193 for the first, -0.643 for the second.

RRIRFRPPRLPRPRPRPMKQPRP and RRIRMRPPRLPRPRPRPPTFPRP are within 0.2 log units of each other in “shrunken log2 fold change” value: -0.0442 for the first, 0.122 for the second.

RRIRQRPPRLPRPRPRPNPEPRP and RRIRNRPPRLPRPRPRPHYHPRP are within 0.2 log units of each other in “shrunken log2 fold change” value: 0.0266 for the first, -0.142 for the second.

In the case of RRIRTRPPRLPRPRPRPVYIPRP, the “shrunken log2 fold change” value is reported as -0.6.
